From patent publication US20210309732A1 (ELIXIRON IMMUNOTHERAPEUTICS HONG KONG, published 2021)

B1: 1D2 SDR mutant HY103V (antibody, IgG1, V domains shown)
VH: QVQLVQSGAEVKKPGASVKVSCEASGYTFTDKYLHWVRQAPGQGLEWMAWINPKSGGTFYAQNFKGRVTVTRDTSINTAYLELTSLRLDDTSTYYCARGRDYVDQGAADLWGQGTMVTVSS
VL: DIQLTQSPSSLSASVGDRVTITCRASQGINSVLAWYQQKPGKAPKLLLYAASKLESGVPSRFSGSGSGTDYTLTISSLQPEDFGTYYCQQYYSPVRTFGQGTKVEIKR
notes: also called X6 V
B2: 1D2 SDR mutant LV32H (antibody, IgG1, V domains shown)
VH: QVQLVQSGAEVKKPGASVKVSCEASGYTFTDKYLHWVRQAPGQGLEWMAWINPKSGGTFYAQNFKGRVTVTRDTSINTAYLELTSLRLDDTSTYYCARGRDYYDQGAADLWGQGTMVTVSS
VL: DIQLTQSPSSLSASVGDRVTITCRASQGINSHLAWYQQKPGKAPKLLLYAASKLESGVPSRFSGSGSGTDYTLTISSLQPEDFGTYYCQQYYSPVRTFGQGTKVEIKR
notes: also called X8 H
B3: 1D2 SDR mutant LP94R (antibody, IgG1, V domains shown)
VH: QVQLVQSGAEVKKPGASVKVSCEASGYTFTDKYLHWVRQAPGQGLEWMAWINPKSGGTFYAQNFKGRVTVTRDTSINTAYLELTSLRLDDTSTYYCARGRDYYDQGAADLWGQGTMVTVSS
VL: DIQLTQSPSSLSASVGDRVTITCRASQGINSVLAWYQQKPGKAPKLLLYAASKLESGVPSRFSGSGSGTDYTLTISSLQPEDFGTYYCQQYYSRVRTFGQGTKVEIKR
notes: also called X9 R
B4: 1D2 SDR mutant LV32G (antibody, IgG1, V domains shown)
VH: QVQLVQSGAEVKKPGASVKVSCEASGYTFTDKYLHWVRQAPGQGLEWMAWINPKSGGTFYAQNFKGRVTVTRDTSINTAYLELTSLRLDDTSTYYCARGRDYYDQGAADLWGQGTMVTVSS
VL: DIQLTQSPSSLSASVGDRVTITCRASQGINSGLAWYQQKPGKAPKLLLYAASKLESGVPSRFSGSGSGTDYTLTISSLQPEDFGTYYCQQYYSPVRTFGQGTKVEIKR
notes: also called X8 G
B5: 1D2 SDR mutant HY103W (antibody, IgG1, V domains shown)
VH: QVQLVQSGAEVKKPGASVKVSCEASGYTFTDKYLHWVRQAPGQGLEWMAWINPKSGGTFYAQNFKGRVTVTRDTSINTAYLELTSLRLDDTSTYYCARGRDYWDQGAADLWGQGTMVTVSS
VL: DIQLTQSPSSLSASVGDRVTITCRASQGINSVLAWYQQKPGKAPKLLLYAASKLESGVPSRFSGSGSGTDYTLTISSLQPEDFGTYYCQQYYSPVRTFGQGTKVEIKR
notes: also called X6 W
B6: 1D2 SDR mutant LV32E (antibody, IgG1, V domains shown)
VH: QVQLVQSGAEVKKPGASVKVSCEASGYTFTDKYLHWVRQAPGQGLEWMAWINPKSGGTFYAQNFKGRVTVTRDTSINTAYLELTSLRLDDTSTYYCARGRDYYDQGAADLWGQGTMVTVSS
VL: DIQLTQSPSSLSASVGDRVTITCRASQGINSELAWYQQKPGKAPKLLLYAASKLESGVPSRFSGSGSGTDYTLTISSLQPEDFGTYYCQQYYSPVRTFGQGTKVEIKR
notes: also called X8 E
B7: 1D2 SDR mutant LV32F (antibody, IgG1, V domains shown)
VH: QVQLVQSGAEVKKPGASVKVSCEASGYTFTDKYLHWVRQAPGQGLEWMAWINPKSGGTFYAQNFKGRVTVTRDTSINTAYLELTSLRLDDTSTYYCARGRDYYDQGAADLWGQGTMVTVSS
VL: DIQLTQSPSSLSASVGDRVTITCRASQGINSFLAWYQQKPGKAPKLLLYAASKLESGVPSRFSGSGSGTDYTLTISSLQPEDFGTYYCQQYYSPVRTFGQGTKVEIKR
notes: also called X8 F
B8: 1D2 SDR mutant LP94C (antibody, IgG1, V domains shown)
VH: QVQLVQSGAEVKKPGASVKVSCEASGYTFTDKYLHWVRQAPGQGLEWMAWINPKSGGTFYAQNFKGRVTVTRDTSINTAYLELTSLRLDDTSTYYCARGRDYYDQGAADLWGQGTMVTVSS
VL: DIQLTQSPSSLSASVGDRVTITCRASQGINSVLAWYQQKPGKAPKLLLYAASKLESGVPSRFSGSGSGTDYTLTISSLQPEDFGTYYCQQYYSCVRTFGQGTKVEIKR
notes: also called X9 C

The binders below were run against T1, recombinant human GM-CSF (human, UniProt P04141 18-144) (assay: ELISA on coated rhGM-CSF, UBA relative to 1D2).
T1 construct: also called rhGM-CSF; CSF2
Method in brief: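 Antibody clones carrying SDR point mutants in VH or VL, each paired with the wild-type chain, were expressed in HEK293 cells. Culture media diluted 1:12000 were bound to plates coated with rhGM-CSF at 1 μg/mL for 1 h at room temperature. Detection used HRP anti-human antibody and Amplex Red fluorescence (Ex530/Em590), with UBA = fluorescence signal/dilution factor.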

T1 sequence (P04141 18-144 limits assumed): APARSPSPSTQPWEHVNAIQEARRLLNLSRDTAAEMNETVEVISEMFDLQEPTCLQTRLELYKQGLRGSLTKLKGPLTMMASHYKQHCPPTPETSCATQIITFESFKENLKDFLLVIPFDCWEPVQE

Compared with B1, B2 is higher in “binding affinity % of 1D2” value: 88% for the first, 128% for the second.

Going from B3 to B4, the “binding affinity % of 1D2” value rises from 146% to 297%.

First: B5
Second: B6
The “binding affinity % of 1D2” value of the first is higher: 139% for the first, 110% for the second.

Compared with B7, B8 is higher in “binding affinity % of 1D2” value: 109% for the first, 253% for the second.
